How the values were obtained:
[1] = molecular target: recombinant Hsp90α (human) (UniProt P07900)
[2] = molecular target: Tsc1-D-His6 labeled with Texas Red maleimide (UniProt Q92574); experiment: fluorescence polarisation; as a5, Hsp90α pre-incubated with 1 μM GB (ganetespib)
[3] = molecular target: Tsc1-D-His6 labeled with Texas Red maleimide (UniProt Q92574); experiment: fluorescence polarisation; fluorescence anisotropy; 1 μM Texas Red-labeled Tsc1-D, Hsp90α at the indicated concentrations; 50 mM Tris pH 7.2, 150 mM NaCl, 1 mM TCEP, 4 mM MgCl2; no nucleotide or drug; single-site fit

Chain of Tsc1-D-His6 labeled with Texas Red maleimide (Q92574 998-1164): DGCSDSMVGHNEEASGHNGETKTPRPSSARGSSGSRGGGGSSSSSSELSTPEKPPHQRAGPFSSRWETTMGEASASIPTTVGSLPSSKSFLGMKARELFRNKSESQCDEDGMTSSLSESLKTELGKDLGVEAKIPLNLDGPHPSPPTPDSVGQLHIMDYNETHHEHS
Chain of recombinant Aha1-FLAG (O95433 whole entry): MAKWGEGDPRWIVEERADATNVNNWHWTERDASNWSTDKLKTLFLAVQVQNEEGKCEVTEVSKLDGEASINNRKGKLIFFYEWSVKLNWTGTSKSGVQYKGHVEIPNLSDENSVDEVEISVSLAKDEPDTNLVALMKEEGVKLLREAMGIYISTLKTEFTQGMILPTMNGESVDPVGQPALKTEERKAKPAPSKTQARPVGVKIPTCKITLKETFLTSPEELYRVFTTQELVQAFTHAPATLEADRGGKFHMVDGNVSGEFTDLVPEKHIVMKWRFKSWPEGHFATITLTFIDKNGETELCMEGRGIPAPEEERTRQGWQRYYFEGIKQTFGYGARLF

Substance | Hsp90α ATPase activity in vitro after incubation with 1 μM Tsc1-D-His6 and addition of 1.3 μM Aha1-FLAG (percent of Hsp90α alone) [1] [%] | Kd [2] [nM] | Kd [3] [nM]
recombinant Aha1-FLAG (from UniProt O95433 1-338) (natural protein) | 100 | – | –
recombinant Hsp90α (from UniProt P07900 1-732) (natural protein) | – | > 5000 | 480

— article PMC5730846
